Measurements reported in article PMC1952217 (The EMBO Journal, 2007).

Legend:
Experiment in all cases: FRET or BRET
[1] = biological target: T1, Scc1 with CFP or YFP at its C-terminus (S. cerevisiae, UniProt Q12158 1-566)
T1 sequence: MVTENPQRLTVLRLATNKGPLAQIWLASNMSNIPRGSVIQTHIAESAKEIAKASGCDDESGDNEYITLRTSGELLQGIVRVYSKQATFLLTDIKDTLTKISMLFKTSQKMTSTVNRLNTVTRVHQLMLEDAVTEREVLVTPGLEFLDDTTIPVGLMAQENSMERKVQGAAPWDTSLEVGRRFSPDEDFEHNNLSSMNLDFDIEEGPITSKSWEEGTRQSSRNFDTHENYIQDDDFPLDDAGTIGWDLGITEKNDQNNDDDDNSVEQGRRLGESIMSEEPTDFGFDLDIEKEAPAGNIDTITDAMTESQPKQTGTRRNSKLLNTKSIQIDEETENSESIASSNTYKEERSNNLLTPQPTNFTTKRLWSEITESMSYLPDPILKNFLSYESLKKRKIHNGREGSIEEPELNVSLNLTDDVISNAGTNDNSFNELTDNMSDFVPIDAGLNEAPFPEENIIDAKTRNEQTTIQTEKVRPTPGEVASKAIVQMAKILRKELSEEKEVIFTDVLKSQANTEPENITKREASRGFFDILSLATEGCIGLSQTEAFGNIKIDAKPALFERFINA

[2] = biological target: T2, Smc1 tagged at its C-terminus with CFP or YFP (S. cerevisiae, UniProt P32908 1-1225)
T2 sequence: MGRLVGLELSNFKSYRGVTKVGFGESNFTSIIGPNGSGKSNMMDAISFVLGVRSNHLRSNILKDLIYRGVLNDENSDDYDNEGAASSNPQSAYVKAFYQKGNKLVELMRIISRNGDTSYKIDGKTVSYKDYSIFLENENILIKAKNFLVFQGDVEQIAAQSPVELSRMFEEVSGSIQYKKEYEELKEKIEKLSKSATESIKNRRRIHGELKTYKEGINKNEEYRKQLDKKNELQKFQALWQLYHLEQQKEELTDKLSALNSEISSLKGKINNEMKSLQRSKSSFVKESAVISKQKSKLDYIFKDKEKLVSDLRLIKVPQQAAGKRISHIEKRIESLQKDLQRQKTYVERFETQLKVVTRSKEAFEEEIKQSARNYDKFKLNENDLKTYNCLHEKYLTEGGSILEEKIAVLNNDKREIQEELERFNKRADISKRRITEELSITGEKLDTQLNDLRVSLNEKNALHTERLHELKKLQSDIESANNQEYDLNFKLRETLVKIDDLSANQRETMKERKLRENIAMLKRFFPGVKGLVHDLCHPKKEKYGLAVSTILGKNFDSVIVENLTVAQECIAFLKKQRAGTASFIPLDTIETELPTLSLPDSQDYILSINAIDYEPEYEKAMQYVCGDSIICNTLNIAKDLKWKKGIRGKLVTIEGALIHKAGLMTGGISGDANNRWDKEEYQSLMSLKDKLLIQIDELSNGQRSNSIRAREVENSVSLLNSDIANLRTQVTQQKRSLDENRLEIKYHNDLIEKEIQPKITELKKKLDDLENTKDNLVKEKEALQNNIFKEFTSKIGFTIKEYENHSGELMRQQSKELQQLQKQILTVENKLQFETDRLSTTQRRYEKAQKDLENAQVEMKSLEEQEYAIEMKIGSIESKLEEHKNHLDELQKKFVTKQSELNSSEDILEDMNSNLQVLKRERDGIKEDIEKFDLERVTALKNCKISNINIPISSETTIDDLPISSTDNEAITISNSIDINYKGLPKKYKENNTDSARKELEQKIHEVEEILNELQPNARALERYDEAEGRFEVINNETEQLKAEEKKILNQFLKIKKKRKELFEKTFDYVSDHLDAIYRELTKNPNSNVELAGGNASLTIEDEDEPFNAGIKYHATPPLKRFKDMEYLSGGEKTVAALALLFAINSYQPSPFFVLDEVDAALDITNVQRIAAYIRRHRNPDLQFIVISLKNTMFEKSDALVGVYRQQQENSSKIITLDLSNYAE

[3] = biological target: T3, Smc3 tagged at its C-terminus with CFP or YFP (S. cerevisiae, UniProt P47037 1-1230)
T3 sequence: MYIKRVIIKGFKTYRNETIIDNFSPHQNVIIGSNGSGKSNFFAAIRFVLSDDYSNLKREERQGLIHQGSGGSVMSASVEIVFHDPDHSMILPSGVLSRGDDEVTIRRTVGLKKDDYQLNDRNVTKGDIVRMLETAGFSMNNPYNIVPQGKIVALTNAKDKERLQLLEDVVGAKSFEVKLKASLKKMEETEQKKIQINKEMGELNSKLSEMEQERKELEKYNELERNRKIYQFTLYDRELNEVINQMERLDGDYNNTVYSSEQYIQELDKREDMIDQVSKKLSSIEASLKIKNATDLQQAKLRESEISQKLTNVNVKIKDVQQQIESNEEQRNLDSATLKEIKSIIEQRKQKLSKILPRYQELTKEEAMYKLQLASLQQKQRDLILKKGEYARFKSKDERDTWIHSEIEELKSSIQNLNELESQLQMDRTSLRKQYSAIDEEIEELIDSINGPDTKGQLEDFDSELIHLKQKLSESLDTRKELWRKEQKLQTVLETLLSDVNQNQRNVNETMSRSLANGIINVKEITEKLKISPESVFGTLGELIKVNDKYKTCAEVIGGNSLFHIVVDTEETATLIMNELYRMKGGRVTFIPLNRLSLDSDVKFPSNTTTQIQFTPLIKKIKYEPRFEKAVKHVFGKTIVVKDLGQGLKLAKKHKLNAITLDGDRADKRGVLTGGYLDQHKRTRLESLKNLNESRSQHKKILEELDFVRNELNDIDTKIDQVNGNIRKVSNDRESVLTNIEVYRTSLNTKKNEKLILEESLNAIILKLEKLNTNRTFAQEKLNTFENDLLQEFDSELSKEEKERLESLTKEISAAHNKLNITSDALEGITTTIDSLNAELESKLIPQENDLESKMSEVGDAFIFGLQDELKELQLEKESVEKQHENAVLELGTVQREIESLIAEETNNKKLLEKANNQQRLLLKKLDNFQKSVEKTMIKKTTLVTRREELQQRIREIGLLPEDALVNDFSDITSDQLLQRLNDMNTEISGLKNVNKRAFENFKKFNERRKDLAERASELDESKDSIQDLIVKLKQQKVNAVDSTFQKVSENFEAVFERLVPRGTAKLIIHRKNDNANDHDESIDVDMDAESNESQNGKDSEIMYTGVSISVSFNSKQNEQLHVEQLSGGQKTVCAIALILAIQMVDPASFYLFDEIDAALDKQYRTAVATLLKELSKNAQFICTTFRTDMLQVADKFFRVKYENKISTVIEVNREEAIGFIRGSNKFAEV

FRETR [1]: 1.4 | FRETR [2]: 1.35 | FRETR [3]: 1.37
B1: Scc3 with CFP or YFP at its C-terminus (natural protein)
chain: MTAVRRSTRIRTKSQVIEEDYDDEQNTSAQHVESDKITAKTQHEEEEEQDTGESEESSSEDDYEDQDDDDYVDTATAKRKSRKRKPKSASNTSSKRQKKKPTSAQKSAVSHAPAYHRSKKDQDQYLEIAKDFQPTELFDILSTSEDVSIEELLREWLETYSENRDKFLQEFINLLLNCCGSVARVEDHDVHSNESSNETIGEIQLLFQRQKLHEFYLLISKENKKRKNFKMGPLYQNFAEFMTKLLEVANDLQLLYVESDEDDTQIVTGNLVLDLLTWLSSFSVCKIRCFRYISTLTLYLFQDYLTQQAVNLEKNYLAKLSKQLSLEEKKKRPNNKTLEKLESTIAETQGSKVVIDSIIDNIVKLCFVHRYKDVSDLIRSESMLHLSIWIKNYPEYFLKVTFLKYFGWLLSDNSVSVRLQVTKILPHLIIQNHNSKSTDNSAIRQVFERFKTKILEVAIRDVNLDVRIHSIQVLTEASSLGYLDDSEILIISSLMFDEEFDPFKTSSFNKRSKFLSTVAKFLARVIKEKFDEFIKTHEDLPKEVDGLEVGPVVQVGIFIKILNDSLIYHLKDCAEVDSRTKIRMLTQAAEFLSPYISTHLKTICNLLISDTESNELIQKLQNSANNNSDDEDVDDEELDITPLFPIDRNSTILYLNVFHGLCAGANNPKIQTKDSVKEIVLPLFYDLLNAASIESADILCPLLESFITFSLDDWISIGYETELKKITDKTIKAFMDSTIGNSKVDMKYDIFAKFIHHIHHFEKKELQEKFLNQIATLKIHLKKFLQEKMDPNNSRDDYKDLTCSLYELYINKLTILGRDYPIEVDEELLQLFLNNFVSRIPIMFQDFDDSTAQEINFKMLVLLATWNLEKWREIIEKVRDYENSISKDLRSVWKPIAAIIGRLNTLVISLAATNETFENINSLFYLKWSACTSLMDIIVAIKIFELKLPADATTWRYSMSEQFPFYLHDNASKVLLKIFLYLESLFAKQVDVQLERVADEDANLNDLPETGFFENIETEFLLFTVKLKGLMKLNILDERFASRVALNKEKLGPLFKKIVDDTIMENPEPNKKNIQKAKSNQTQREKAPLQPNSERETDHANTENNDPDIPMTIDLEPIEESSQNNSELAPIEEHPTVVDAIDNSDEITQD
